# Source: US20190321401A1 (JUNO THERAPEUTICS, published 2019)
# Numbering of substitutions follows the chain as printed.
# B1: TCR 58 (TCR, V domains shown)
# Valpha: RKEVEQDPGPFNVPEGATVAFNCTYSNSASQSFFWYRQDCRKEPKLLMSVYSSGNEDGRFTAQLNRASQYISLLIRDSKLSDSATYLCVVNRDNYGQNFVFGPGTRLSVLP
# Vbeta: EPEVTQTPSHQVTQMGQEVILRCVPISNHLYFYWYRQILGQKVEFLVSFYNNEISEKSEIFDDQFSVERPDGSNFTLKIRSTKLEDSAMYFCASTPRSSYEQYFGPGTRLTVT
# B2: TCR 60 (TCR, V domains shown)
# Valpha: QKEVEQNSGPLSVPEGAIASLNCTYSDRGSQSFFWYRQYSGKSPELIMFIYSNGDKEDGRFTAQLNKASQYVSLLIRDSQPSDSATYLCAVNMLGSGGSNYKLTFGKGTLLTVNP
# Vbeta: B1 Vbeta with S94I, T95S, P96R, R97T, S98V
# B3: TCR 59 (TCR, V domains shown)
# Valpha: GQQVMQIPQYQHVQEGEDFTTYCNSSTTLSNIQWYKQRPGGHPVFLIQLVKSGEVKKQKRLTFQFGEAKKNSSLHITATQTTDVGTYFCAPKREYGNKLVFGAGTILRVKS
# Vbeta: B1 Vbeta with S94Y, T95S, P96G, S98A
# B4: TCR 61 (TCR, V domains shown)
# Valpha: QKEVEQNSGPLSVPEGAIASLNCTYSDRGSQSFFWYRQYSGKSPELIMFIYSNGDKEDGRFTAQLNKASQYVSLLIRDSQPSDSATYLCAVNIENNNARLMFGDGTQLVVKP
# Vbeta: B1 Vbeta with P96K, S98F
# B5: TCR 65 (TCR, V domains shown)
# Valpha: EDQVTQSPEALRLQEGESSSLNCSYTVSGLRGLFWYRQDPGKGPEFLFTLYSAGEEKEKERLKATLTKKESFLHITAPKPEDSATYLCAVQAERGSTLGRLYFGRGTQLTVWP
# Vbeta: DVKVTQSSRYLVKRTGEKVFLECVQDMDHENMFWYRQDPGLGLRLIYFSYDVKMKEKGDIPEGYSVSREKKERFSLILESASTNQTSMYLCASSLWGRRNTGELFFGEGSRLTVL
# B6: TCR 62 (TCR, V domains shown)
# Valpha: AQTVTQSQPEMSVQEAETVTLSCTYDTSENNYYLFWYKQPPSRQMILVIRQEAYKQQNATENRFSVNFQKAAKSFSLKISDSQLGDTAMYFCALYTYKYIFGTGTRLKVLA
# Vbeta: EAGVAQSPRYKIIEKRQSVAFWCNPISGHATLYWYQQILGQGPKLLIQFQNNGVVDDSQLPKDRFSAERLKGVDSTLKIQPAKLEDSAVYLCASSLDTRGSSYNEQFFGPGTRLTVL
# B7: TCR 56 (TCR, V domains shown)
# Valpha: GQNIDQPTEMTATEGAIVQINCTYQTSGFNGLFWYQQHAGEAPTFLSYNVLDGLEEKGRFSSFLSRSKGYSYLLLKELQMKDSASYLCAVRDWGYGGATNKLIFGTGTLLAVQP
# Vbeta: NAGVMQNPRHLVRRRGQEARLRCSPMKGHSHVYWYRQLPEEGLKFMVYLQKENIIDESGMPKERFSAEFPKEGPSILRIQQVVRGDSAAYFCASSPDESRDSNQPQHFGDGTRLSIL
# Target: T1, HPV 16 E6 peptide on HLA-A*02:01 (human)
# T1 peptide: TIHDIILECV
# Assay: multimer staining
row,Binder,binding result
1,B1,no recognition
2,B2,no recognition
3,B3,no recognition
4,B4,no recognition
5,B5,recognises
6,B6,no recognition
7,B7,no recognition

# Target: T2, HPV 16 E7 peptide on HLA-A*02:01 (human)
# T2 peptide: YMLDLQPET
# Assay: multimer staining
row,Binder,binding result
1,B1,recognises
2,B2,recognises
3,B3,recognises
4,B4,recognises
5,B5,no recognition
6,B6,recognises
7,B7,no recognition
